Reference: patent US20240301362A1

Target: CD46 (UniProt P15529)
Assay: Kd determination, method not stated (column head 'Kd (Oleks)')

Chain of UniProt P15529 (P15529 35-343): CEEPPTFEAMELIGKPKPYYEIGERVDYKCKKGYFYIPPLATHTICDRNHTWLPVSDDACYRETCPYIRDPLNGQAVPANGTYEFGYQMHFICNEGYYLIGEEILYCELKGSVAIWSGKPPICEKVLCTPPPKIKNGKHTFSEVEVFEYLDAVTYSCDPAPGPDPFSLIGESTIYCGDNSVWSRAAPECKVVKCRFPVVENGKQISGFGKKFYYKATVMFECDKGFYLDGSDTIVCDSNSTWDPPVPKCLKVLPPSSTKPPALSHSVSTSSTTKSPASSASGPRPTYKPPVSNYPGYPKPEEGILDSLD

Substance	Kd [nM]
Ad11 knob (from UniProt P35774 123-325)	11.2
Mutated Ad35 Knob A8: Ile192Val Ile256Val (from UniProt Q92854)	13.7
wtAd35(207Asp) knob	15
